Reference: patent US20240392008A1

Molecular target: CD25 (IL-2Rα) (UniProt P01589)
Test: cell-based or functional assay

UniProt P01589, sequence (P01589 22-272 limits assumed): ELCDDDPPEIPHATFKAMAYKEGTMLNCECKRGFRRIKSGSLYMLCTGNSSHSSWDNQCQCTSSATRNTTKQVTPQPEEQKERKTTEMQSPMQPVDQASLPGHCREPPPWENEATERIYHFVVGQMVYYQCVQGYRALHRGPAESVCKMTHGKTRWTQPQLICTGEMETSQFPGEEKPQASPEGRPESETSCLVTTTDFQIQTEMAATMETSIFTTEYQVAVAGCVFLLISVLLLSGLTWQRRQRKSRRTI

B1: IC-T6-IC-IL2v (IL2v immunoconjugate) (protein, part only; not given: isotype control Fab and Fc chains, not shown: a dimerising Fc or GST)
chain, part: APASSSTKKTQLQLEHLLLDLQMILNGINNYKNPKLTRMLTAKFAMPKKATELKHLQCLEEELKPLEEVLNGAQSKNFHLRPRDLISNINVIVLELKGSETTFMCEYADETATIVEFLNRWITFAQSIISTLT
percent of pSTAT5+ cells among Treg (flow cytometry on PBMC, 20 min): 3 log
